T1: human MIC-1 receptor (hGFRAL, GDNF family receptor alpha like) (human, UniProt Q6UXV0 19-394)
T1 sequence (looked up): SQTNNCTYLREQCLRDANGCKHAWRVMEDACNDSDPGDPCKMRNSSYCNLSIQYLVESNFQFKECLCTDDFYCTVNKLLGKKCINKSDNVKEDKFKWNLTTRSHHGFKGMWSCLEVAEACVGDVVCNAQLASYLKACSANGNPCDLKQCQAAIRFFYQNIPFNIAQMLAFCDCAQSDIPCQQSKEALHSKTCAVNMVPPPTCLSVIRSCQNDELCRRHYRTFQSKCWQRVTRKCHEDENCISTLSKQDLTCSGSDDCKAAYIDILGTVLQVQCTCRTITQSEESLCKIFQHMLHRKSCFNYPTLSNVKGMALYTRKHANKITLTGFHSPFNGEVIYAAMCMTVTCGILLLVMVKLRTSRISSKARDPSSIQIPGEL


Biological target: T1, human MIC-1 receptor (hGFRAL, GDNF …)
Assay: cell-based or functional assay

| Binder | pERK EC50 (nM) | pERK Emax (%) |
| --- | --- | --- |
| SPAGSPTSTEEGTSESATPESGPG-MIC-1 (SEQ ID NO: 1) (ligand) SPAGSPTSTEEGTSESATPESGPGARNGDHCPLGPGRCCRLHTVRASLEDLGWADWVLSPREVQVTMCIGACPSQFRAANMHAQIKTSLHRLKPDTVPAPCCVPASYNPMVLIQKTDTGVSLQTYDDLLAKDCHCI | 0.4 | 100 |
| AAPEDEETPEQEGSGSGSGSGS-MIC-1-Δ1-3 (ligand) AAPEDEETPEQEGSGSGSGSGSGDHCPLGPGRCCRLHTVRASLEDLGWADWVLSPREVQVTMCIGACPSQFRAANMHAQIKTSLHRLKPDTVPAPCCVPASYNPMVLIQKTDTGVSLQTYDDLLAKDCHCI | 0.5 | 100 |
| (AEE)2AES-MIC-1-Δ1-3 (ligand) AEEAEEAESGDHCPLGPGRCCRLHTVRASLEDLGWADWVLSPREVQVTMCIGACPSQFRAANMHAQIKTSLHRLKPDTVPAPCCVPASYNPMVLIQKTDTGVSLQTYDDLLAKDCHCI | 0.4 | 100 |
| (GEPS)5-MIC-1 (SEQ ID NO: 1) (ligand) GEPSGEPSGEPSGEPSGEPSARNGDHCPLGPGRCCRLHTVRASLEDLGWADWVLSPREVQVTMCIGACPSQFRAANMHAQIKTSLHRLKPDTVPAPCCVPASYNPMVLIQKTDTGVSLQTYDDLLAKDCHCI | 0.5 | 100 |
| MIC-1 (SEQ ID NO: 1) (ligand) ARNGDHCPLGPGRCCRLHTVRASLEDLGWADWVLSPREVQVTMCIGACPSQFRAANMHAQIKTSLHRLKPDTVPAPCCVPASYNPMVLIQKTDTGVSLQTYDDLLAKDCHCI | 0.3 | 100 |
| MIC-1(R2A, N3E, K69E) (ligand) AAEGDHCPLGPGRCCRLHTVRASLEDLGWADWVLSPREVQVTMCIGACPSQFRAANMHAQIKTSLHRLEPDTVPAPCCVPASYNPMVLIQKTDTGVSLQTYDDLLAKDCHCI | 0.5 | 100 |
| MIC-1(R2A, N3E, P85E) (ligand) AAEGDHCPLGPGRCCRLHTVRASLEDLGWADWVLSPREVQVTMCIGACPSQFRAANMHAQIKTSLHRLKPDTVPAPCCVPASYNEMVLIQKTDTGVSLQTYDDLLAKDCHCI | 0.6 | 100 |
| MIC-1(R2A, N3E, A54E) (ligand) AAEGDHCPLGPGRCCRLHTVRASLEDLGWADWVLSPREVQVTMCIGACPSQFREANMHAQIKTSLHRLKPDTVPAPCCVPASYNPMVLIQKTDTGVSLQTYDDLLAKDCHCI | 0.3 | 100 |
| MIC-1(R2A, N3E, M57E) (ligand) AAEGDHCPLGPGRCCRLHTVRASLEDLGWADWVLSPREVQVTMCIGACPSQFRAANEHAQIKTSLHRLKPDTVPAPCCVPASYNPMVLIQKTDTGVSLQTYDDLLAKDCHCI | 0.3 | 70 |
| MIC-1(R2A, N3E, A30E) (ligand) AAEGDHCPLGPGRCCRLHTVRASLEDLGWEDWVLSPREVQVTMCIGACPSQFRAANMHAQIKTSLHRLKPDTVPAPCCVPASYNPMVLIQKTDTGVSLQTYDDLLAKDCHCI | 0.7 | 100 |
| MIC-1(R2A, N3E) (ligand) AAEGDHCPLGPGRCCRLHTVRASLEDLGWADWVLSPREVQVTMCIGACPSQFRAANMHAQIKTSLHRLKPDTVPAPCCVPASYNPMVLIQKTDTGVSLQTYDDLLAKDCHCI | 0.3 | 100 |
| MIC-1(R2A, N3E, R21E) (ligand) AAEGDHCPLGPGRCCRLHTVEASLEDLGWADWVLSPREVQVTMCIGACPSQFRAANMHAQIKTSLHRLKPDTVPAPCCVPASYNPMVLIQKTDTGVSLQTYDDLLAKDCHCI | 0.6 | 100 |
| MIC-1(R2A, N3E, L105E) (ligand) AAEGDHCPLGPGRCCRLHTVRASLEDLGWADWVLSPREVQVTMCIGACPSQFRAANMHAQIKTSLHRLKPDTVPAPCCVPASYNPMVLIQKTDTGVSLQTYDDLEAKDCHCI | 0.7 | 100 |
| MIC-1(R2A, N3E, H18E) (ligand) AAEGDHCPLGPGRCCRLETVRASLEDLGWADWVLSPREVQVTMCIGACPSQFRAANMHAQIKTSLHRLKPDTVPAPCCVPASYNPMVLIQKTDTGVSLQTYDDLLAKDCHCI | 0.5 | 100 |
| MIC-1(R2A, N3E, R53E) (ligand) AAEGDHCPLGPGRCCRLHTVRASLEDLGWADWVLSPREVQVTMCIGACPSQFEAANMHAQIKTSLHRLKPDTVPAPCCVPASYNPMVLIQKTDTGVSLQTYDDLLAKDCHCI | 0.4 | 100 |
| MIC-1(R2A, N3E, P11E) (ligand) AAEGDHCPLGEGRCCRLHTVRASLEDLGWADWVLSPREVQVTMCIGACPSQFRAANMHAQIKTSLHRLKPDTVPAPCCVPASYNPMVLIQKTDTGVSLQTYDDLLAKDCHCI | 0.4 | 100 |
| MIC-1(R2A, N3E, K107E) (ligand) AAEGDHCPLGPGRCCRLHTVRASLEDLGWADWVLSPREVQVTMCIGACPSQFRAANMHAQIKTSLHRLKPDTVPAPCCVPASYNPMVLIQKTDTGVSLQTYDDLLAEDCHCI | 0.3 | 100 |
| MIC-1(R2A, N3E, R67E) (ligand) AAEGDHCPLGPGRCCRLHTVRASLEDLGWADWVLSPREVQVTMCIGACPSQFRAANMHAQIKTSLHELKPDTVPAPCCVPASYNPMVLIQKTDTGVSLQTYDDLLAKDCHCI | 0.5 | 100 |
| MIC-1(R2A, N3E, L68E) (ligand) AAEGDHCPLGPGRCCRLHTVRASLEDLGWADWVLSPREVQVTMCIGACPSQFRAANMHAQIKTSLHREKPDTVPAPCCVPASYNPMVLIQKTDTGVSLQTYDDLLAKDCHCI | 0.8 | 100 |
| AES-MIC-1-Δ1-3 (ligand) AESGDHCPLGPGRCCRLHTVRASLEDLGWADWVLSPREVQVTMCIGACPSQFRAANMHAQIKTSLHRLKPDTVPAPCCVPASYNPMVLIQKTDTGVSLQTYDDLLAKDCHCI | 0.3 | 100 |
| MIC-1(R2A, N3E, A47E) (ligand) AAEGDHCPLGPGRCCRLHTVRASLEDLGWADWVLSPREVQVTMCIGECPSQFRAANMHAQIKTSLHRLKPDTVPAPCCVPASYNPMVLIQKTDTGVSLQTYDDLLAKDCHCI | 0.4 | 100 |
| (AEE)3AES-MIC-1-Δ1-3 (ligand) AEEAEEAEEAESGDHCPLGPGRCCRLHTVRASLEDLGWADWVLSPREVQVTMCIGACPSQFRAANMHAQIKTSLHRLKPDTVPAPCCVPASYNPMVLIQKTDTGVSLQTYDDLLAKDCHCI | 0.5 | 100 |
| AAPEDEETPEQE-MIC-1-Δ1-3 (ligand) AAPEDEETPEQEGDHCPLGPGRCCRLHTVRASLEDLGWADWVLSPREVQVTMCIGACPSQFRAANMHAQIKTSLHRLKPDTVPAPCCVPASYNPMVLIQKTDTGVSLQTYDDLLAKDCHCI | 0.5 | 100 |
| AASPAGSPTSTEEGTSESATPESGPG-MIC-1-Δ1-3 (ligand) AASPAGSPTSTEEGTSESATPESGPGGDHCPLGPGRCCRLHTVRASLEDLGWADWVLSPREVQVTMCIGACPSQFRAANMHAQIKTSLHRLKPDTVPAPCCVPASYNPMVLIQKTDTGVSLQTYDDLLAKDCHCI | 0.7 | 100 |
| AEEAES-MIC-1-Δ1-3 (ligand) AEEAESGDHCPLGPGRCCRLHTVRASLEDLGWADWVLSPREVQVTMCIGACPSQFRAANMHAQIKTSLHRLKPDTVPAPCCVPASYNPMVLIQKTDTGVSLQTYDDLLAKDCHCI | 0.3 | 100 |
| AASPAGSPTSTEEGTSESATPESGPG-MIC-1 (SEQ ID NO: 1) (ligand) AASPAGSPTSTEEGTSESATPESGPGARNGDHCPLGPGRCCRLHTVRASLEDLGWADWVLSPREVQVTMCIGACPSQFRAANMHAQIKTSLHRLKPDTVPAPCCVPASYNPMVLIQKTDTGVSLQTYDDLLAKDCHCI | 0.4 | 100 |
| (AEE)6AES-MIC-1(SEQ ID NO: 1) (ligand) AEEAEEAEEAEEAEEAEEAESGDHCPLGPGRCCRLHTVRASLEDLGWADWVLSPREVQVTMCIGACPSQFRAANMHAQIKTSLHRLKPDTVPAPCCVPASYNPMVLIQKTDTGVSLQTYDDLLAKDCHCI | 0.8 | 100 |
| (AEE)5AES-MIC-1-Δ1-3 (ligand) AEEAEEAEEAEEAEEAESGDHCPLGPGRCCRLHTVRASLEDLGWADWVLSPREVQVTMCIGACPSQFRAANMHAQIKTSLHRLKPDTVPAPCCVPASYNPMVLIQKTDTGVSLQTYDDLLAKDCHCI | 0.5 | 100 |
| TSESATPESGPGTSESATPESGPG-MIC-1(R2A, N3E) (ligand) TSESATPESGPGTSESATPESGPGAAEGDHCPLGPGRCCRLHTVRASLEDLGWADWVLSPREVQVTMCIGACPSQFRAANMHAQIKTSLHRLKPDTVPAPCCVPASYNPMVLIQKTDTGVSLQTYDDLLAKDCHCI | 0.3 | 100 |
